Reference: patent publication EP2450379B1 (Crucell Holland B.V., dated 2015)

Key:
[1] = molecular target: T1, soluble recombinant HA (sHA) of H5N1TV (influenza A virus A/Vietnam/1194/2004 …, UniProt Q6J8F6 17-528); experiment: immunoblot (data not shown)
[2] = molecular target: T1, soluble recombinant HA (sHA) of H5N1TV; experiment: immunoblot, reducing SDS-PAGE

| Binder | binding result [1] | binding result [2] |
| --- | --- | --- |
| CR6296 (antibody, V domains shown, human IgG1) VH: EVQLVETGAEVKKPGASVKVSCKASGYTFTSYYMHWVRQAPGQGLEWMGWINPNSGGTNYAQKFQGRVTMTRDTSISTAYMELSRLRSDDTAVYYCAREGKWGPQAAFDIWGQGTMVTVSS VL: EIVMTQSPGTLSLSPGERATLSCRASQSVSSSYLAWYQQKPGQAPRLLIYDASSRATDIPDRFSGSGSGTDFTLTISRLEPEDFAVYYCQQYGSSLWTFGQGTKVEIKR | binds |  |
| CR6141 (antibody, V domains shown, human IgG1) VH: EVQLVQSGAEVKKPGASVKVSCKASGYTFTGYYVYWVRQAPGQGLEWMGWISAYNGNTNYAQKFQGRVTITADKSTSTAYMELSSLRSEDTAVYYCARSRSLDVWGQGTTVTVSS VL: not shown | binds |  |
| CR6323 (antibody, V domains shown, human IgG1) VH: EVQLVESGAEVKKPGSSVKVSCKASGGTFSSYGISWVRQAPGQGLEWMGDIIGMFGSTNYAQNFQGRLTITADESTSTAYMELSSLRSEDTAVYYCARSSGYYPAYLPHWGQGTLVTVSS VL: not shown |  | binds |
| CR6301 (antibody, V domains shown, human IgG1) VH: EVQLVESGGGLVQPGGSLRLSCAASGFTFSIYAMSWVRQAPGKGLEWVSAISSSGDSTYYADSVKGRFTISRDNARNTLYLQMNSLRAEDTAVYYCARAYGYTFDPWGQGTLVTVSS VL: not shown | binds |  |
| CR6307 (antibody, V domains shown, human IgG1) VH: QVQLVQSGGGLVKPGGSLRLSCAASGFTFSSYSMNWVRQAPGKGLEWVSSISSSSSYIYYVDSVKGRFTISRDNAKNSLYLQMNSLRAEDTAVYYCARGGGSYGAYEGFDYWGQGTLVTVSS VL: EIVLTQSPGTLSLSPGERATLSCRASQRVSSYLAWYQQKPGQAPRLLIYGASTRAAGIPDRFSGSGSGTDFTLTISRLEPEDSAVYYCQQYGRTPLTFGGGTKVEIKR |  | binds |
